Laboratory results published in article PMC5915679.

Biological target: human Argonaute-2 (human) (UniProt Q9UKV8)
Assay: ITC

Row | Kd | fold lower affinity than without competitor (with 5 μM motif-2) | fold lower affinity than without competitor (with 10 μM motif-2) | Binder
1 | 0.234 µM | 7 fold | 15 fold | TVDNGTSAWGKPIDSGPSWGEP [hGW182 (TNRC6A) hook motif]
2 | 0.118 µM | – | – | VNRTDLDPRVLSNSGWGQTPIKQNTAWDTETSPRGE (domain or fragment) [hGW182 (TNRC6A) motif-1]
